Paper PMC4538820, “The XRCC1 phosphate-binding pocket binds poly (ADP-ribose) and is required for XRCC1 function” (Nucleic Acids Research, 2015)

B1: His-XRCC1^161–406 (domain or fragment, human, UniProt P18887 161-406, looked up)
chain: PSQKVTVTKLGQFRVKEEDESANSLRPGALFFSRINKTSPVTASDPAGPSYAAATLQASSAASSASPVSRAIGSTSKPQESPKGKRKLDLNQEEKKTPSKPPAQLSPSVPKRPKLPAPTRTPATAPVPARAQGAVTGKPRGEGTEPRRPRAGPEELGKILQGVVVVLSGFQNPFRSELRDKALELGAKYRPDWTRDSTHLICAFANTPKYSQVLGLGGRIVRKEWVLDCHRMRRRLPSQRYLMAGP
notes: Vector pTWO-E (from pET-17b) adds an N-terminal His6 tag that can be cleaved by rhinovirus 3C; also called wild-type histidine-tagged fragment of human XRCC1 spanning the conserved BRCT1 domain; source: E. coli Rosetta2 (DE3)pLysS, purified (Talon resin, heparin column); not shown: His6, N-terminal, kept

Legend:
[1] = target: mock-ribosylated histone H1 (adsorbed to microwells, no NAD+); assay: microwell plate binding assay (absorbance at 450 nm); details: 0 μM NAD+, read off a plot
[2] = target: ribosylated histone H1 (adsorbed to microwells, ribosylated with PARP1 and NAD+); assay: as above; details: read off a plot
[3] = target: T1, ribosylated PARP1 (adsorbed to microwells, ribosylated with PARP1 and NAD+) (human, UniProt P09874 1-1014, poly (ADP-ribosyl)ated by PARP1 in the presence of 1–50 μM NAD+; sites not stated); assay: ELISA; PARP1, histone H1 or BSA adsorbed to microwells (0.1 mg/ml in PBS), mock-ribosylated (no NAD+) or ribosylated with 5 nM PARP1 and 1–50 μM NAD+; 25 nM His-XRCC1 in 20 mM Tris pH7.5, 130 nM NaCl, 30 min on ice; detected with anti-His Mab and HRP secondary, A450; details: both partners purified
T1 construct: PARP1, poly (ADP-ribose) polymerase 1; 'recombinant, human, full length' is printed for the 5 nM PARP1 of the reaction; Species and form are printed for the PARP1 used as enzyme; I took the adsorbed PARP1 to be the same preparation; also called PARP1 +NAD+; autoribosylated PARP1; source: recombinant
T1 sequence (P09874 whole entry): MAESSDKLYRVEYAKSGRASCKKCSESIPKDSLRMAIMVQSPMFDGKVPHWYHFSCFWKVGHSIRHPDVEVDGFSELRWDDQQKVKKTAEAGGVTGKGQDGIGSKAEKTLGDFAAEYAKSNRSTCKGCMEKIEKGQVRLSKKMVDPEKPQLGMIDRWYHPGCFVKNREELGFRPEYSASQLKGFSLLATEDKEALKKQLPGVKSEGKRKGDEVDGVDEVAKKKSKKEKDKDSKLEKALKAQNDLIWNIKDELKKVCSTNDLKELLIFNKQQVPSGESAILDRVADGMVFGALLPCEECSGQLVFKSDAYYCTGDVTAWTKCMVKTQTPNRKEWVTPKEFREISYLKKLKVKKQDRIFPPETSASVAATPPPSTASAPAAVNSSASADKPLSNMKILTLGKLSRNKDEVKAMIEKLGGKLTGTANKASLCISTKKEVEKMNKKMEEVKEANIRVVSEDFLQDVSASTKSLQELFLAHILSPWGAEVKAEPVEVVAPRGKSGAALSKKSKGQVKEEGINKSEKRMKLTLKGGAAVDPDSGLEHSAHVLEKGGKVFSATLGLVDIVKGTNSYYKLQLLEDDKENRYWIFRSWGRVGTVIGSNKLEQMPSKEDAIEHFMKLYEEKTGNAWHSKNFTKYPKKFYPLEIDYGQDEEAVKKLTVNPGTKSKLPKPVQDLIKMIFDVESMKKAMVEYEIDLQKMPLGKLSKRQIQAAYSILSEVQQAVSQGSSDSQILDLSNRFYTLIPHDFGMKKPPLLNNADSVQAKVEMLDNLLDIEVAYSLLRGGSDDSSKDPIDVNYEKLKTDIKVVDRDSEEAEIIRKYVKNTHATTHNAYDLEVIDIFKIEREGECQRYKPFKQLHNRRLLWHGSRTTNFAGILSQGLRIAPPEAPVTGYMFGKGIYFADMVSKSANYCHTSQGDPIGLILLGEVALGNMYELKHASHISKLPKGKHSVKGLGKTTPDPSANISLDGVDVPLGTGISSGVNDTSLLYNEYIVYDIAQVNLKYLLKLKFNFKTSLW

Molecule	response ([1]; adsorbed histone H1 mock-ribosylated, parent: est. 0.11)	response ([1]; left panel, calf thymus histone mock-ribosylated, no competitor, parent: est. 0.10)	response ([2]; adsorbed histone H1 ribosylated with 1 μM NAD+, parent: est. 1.7)	response ([2]; adsorbed histone H1 ribosylated with 10 μM NAD+, parent: est. 2.1)	response ([2]; adsorbed histone H1 ribosylated with 50 μM NAD+, parent: est. 2.2)	response ([2]; left panel, calf thymus histone ribosylated with 0.5 μM NAD+, no competitor, parent: est. 0.82)	binding result [3]
His-XRCC1^161–406 (from UniProt P18887) R335A; K369A	0.1 Abs 450nm	0.12 Abs 450nm	0.12 Abs 450nm	0.78 Abs 450nm	1.2 Abs 450nm	0.11 Abs 450nm	
B1							binds
